The results in this text go back to article PMC6044767.

Experiment [1] concerns the target native Escherichia coli L-asparaginase II (Kidrolase) (E. coli) (UniProt P00805). The experiment can be described thus: native gel or EMSA. A general note: Mobility shift assays separate free from complexed probe on a gel.
For experiment [2] the target is unchanged.
Experiment [3] shares this target. Put plainly: SEC. On the technique in general: In gel filtration, larger molecules generally elute earlier.
For experiment [4] the target is unchanged. Put plainly: native gel or EMSA. The source holds these as a separate data set.
Experiment [5] has the same target. This is another data set of the same source.
Experiment [6] deals with T1, N21-EcAII (E. coli K12), P00805.
T1 chain: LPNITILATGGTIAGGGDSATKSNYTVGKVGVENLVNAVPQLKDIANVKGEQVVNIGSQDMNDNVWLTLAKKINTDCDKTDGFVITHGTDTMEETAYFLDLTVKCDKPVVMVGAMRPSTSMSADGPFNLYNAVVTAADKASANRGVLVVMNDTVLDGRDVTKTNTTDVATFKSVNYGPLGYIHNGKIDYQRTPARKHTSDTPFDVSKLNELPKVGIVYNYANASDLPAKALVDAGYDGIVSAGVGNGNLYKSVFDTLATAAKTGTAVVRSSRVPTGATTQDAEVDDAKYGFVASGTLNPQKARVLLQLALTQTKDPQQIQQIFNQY
Put plainly: SEC. The settings on record: remark: other sources report otherwise.

Experiment [7] shares this target. Put plainly: SEC. The settings on record: remark: other sources report otherwise.
The target of experiment [8] is T2, C8-EcAII (E. coli K12), P00805.
T2 chain: T1 chain
The experiment can be described thus: native gel or EMSA. The settings on record: remark: other sources report otherwise.

Experiment [9] has the same target. The experiment can be described thus: SEC. The settings on record: remark: other sources report otherwise.
The target is the same in experiment [10]. Put plainly: SEC. The settings on record: remark: other sources report otherwise.
The target of experiment [11] is T3, N26-EcAII (E. coli K12), P00805.
T3 chain: T1 chain
The experiment can be described thus: native gel or EMSA. The settings on record: remark: other sources report otherwise.

Experiment [12] has the same target. Put plainly: SEC. As to conditions: remark: other sources report otherwise.
Experiment [13] shares this target. The experiment can be described thus: SEC. As to conditions: remark: other sources report otherwise.

Where “and” joins values, the source holds several entries; their conditions need not be identical. Equal entries are not always repeated.

On to “native Escherichia coli L-asparaginase II (Kidrolase) (from UniProt P00805 23-348) (enzyme)”, for which the stoichiometry N (commonly the number of molecules, sites or subunits per partner or assembly) was 8 and 12 and 4 in [1]; 4 and 8 and 12 in experiment [3]; 4 and 8 and 12 in experiment [4]. In experiment [2], this molecule had a specific activity of EcAII immobilized on gold chips (GDH-coupled assay) of 310 U mg^–1. The molecule also displayed a specific activity in solution (GDH-coupled assay) in experiment [5] of 118 U mg^–1.

B1: N21-EcAII, P00805 23-348 (enzyme)
chain: T1 chain
Take B1: the stoichiometry N is 4 in [6]; 8 and 12 and 4 in experiment [7].

B2: C8-EcAII, P00805 23-348 (enzyme)
chain: T1 chain
On to B2, for which the percent dissociated into monomer in experiment [8] was 50%. The stoichiometry N in experiment [8] is 4 and 8; in [9], 4; in experiment [10] it was 4.

B3: N26-EcAII, P00805 23-348 (enzyme)
chain: T1 chain
On to B3, for which the stoichiometry N in [11], in experiment [12] and in [13] was 4 throughout.
